# Results: the RNAGym collection of RNA variant scans (doi:10.7554/elife.80360)
# B1: HDV Ribozyme (parent)
# chain: GGCCGGCAUGGUCCCAGCCUCCUCGCUGGCGCCGGCUGGGCAACAUUCCGAGGGGACCGUCCCCUCGGUAAUGGCGAAUGGGACCCA
# Variants of: B1
# Assay: self-cleavage, relative activity (ratio to wild type); higher = more cleavage; co-transcriptional
row,Variant,self-cleavage
1,C24A G50C,0.855
2,G25A A42U,0
3,U23G A87U,0.715
4,C24A G68A,0.678
5,U23C G74U,0.554
6,G25C C85A,0.0594
7,G25U C58U,0.217
8,G25U C58G,0.18
9,U23G C62G,0.453
10,G25U C61A,0.287
11,G25U G40C,0.0297
12,G25U G40U,0.193
13,C24A G52U,0.769
14,G25A C63U,0.289
15,G25C C30G,0.0959
16,G25C C30U,0.0326
17,G25U C75G,0.128
18,G25U C75A,0.0941
19,G25C G28U,0.119
20,G25C G28C,0
21,C24A G55U,0.908
22,C24U A87G,0.55
23,C24U U60C,0.752
24,C24U U60A,0.627

row,Variant,self-cleavage
1,U23G A78U,0.0875
2,U23G A78G,0.262
3,U23C U47C,1.04
4,U23C U47G,1.28
5,G25A U72A,0.158
6,C24G G76A,0.101
7,C24G G76U,0.339
8,C24G C44G,0.125
9,C24G A51C,0
10,C24A G34U,0.0831
11,G25U G34U,0.026
12,C24G G67U,0.135
13,C24U C75U,0.197
14,C24A G28A,0.208
15,C24A G28U,0.0386
16,C24G A42C,0.101
17,G25A C86G,0.122
18,G25A C86A,0.104
19,G25U C66G,0.0354
20,U23G C48G,0.361
21,U23G C48U,0.731
22,U23G C49G,0.346
23,C24U C44G,0.119
24,G25C C66G,0.0978

row,Variant,self-cleavage
1,C24U C49U,0.758
2,G25A A77C,0.0978
3,G25C A77G,0.111
4,C24A G82A,0.223
5,U23G G29U,0
6,G25A C62U,0.182
7,G25A C62G,0.151
8,G25C U72G,0.0639
9,G25U A70C,0.237
10,C24G C33U,0.104
11,U23G G52C,0.807
12,C24G A56G,0.0875
13,C24G A56C,0.0723
14,G25C U47C,0
15,G25A U27A,0.161
16,U23G U69C,0.598
17,G25A A78G,0.0339
18,C24U G52C,0.884
19,C24U G52U,0.694
20,G25A G28U,0.0185
21,G25A G28C,0.231
22,G25A G28A,0.0482
23,C24U C66A,0.525
24,U23G C63A,0.623

row,Variant,self-cleavage
1,G25C A83U,0.0923
2,U23G C36G,0.252
3,U23G C36U,0.386
4,C24G C66A,0.0723
5,U23G G55C,0.748
6,G25U G52C,0.208
7,G25A G29C,0.0583
8,G25A G29U,0.0941
9,C24U C32G,0
10,G25U G55U,0.151
11,G25U G73C,0.0415
12,G25U G73U,0.117
13,G25U G73A,0.0923
14,C24A A78U,0.0923
15,C24G U27A,0.0437
16,G25U G29A,0.0369
17,U23G C24A,0.706
18,U23G C24U,0.314
19,C24A G40U,0.41
20,C24G C84G,0.0811
21,C24A A45C,0.19
22,G25A G68C,0.253
23,G25A G76C,0.217
24,G25A G81A,0.125

row,Variant,self-cleavage
1,G25C G29U,0.0773
2,G25A G67A,0.299
3,G25A G67C,0.277
4,U23G G74A,0.0489
5,G25C G80U,0.126
6,G25U A71G,0.101
7,C24U C85A,0.831
8,C24U C85G,0.629
9,C24U C85U,0.718
10,C24U U72G,0.323
11,C24G G50A,0.104
12,G25A G35A,0.271
13,G25A U37C,0.141
14,G25A U37A,0.213
15,G25A C32U,0.169
16,C24G G38U,0.0268
17,C24G G54C,0.0511
18,C24G G54A,0
19,C24G G54U,0.183
20,G25C G52A,0.17
21,U23G C61G,0.628
22,C24G C41G,0
23,C24G C41U,0.102
24,G25A C58A,0.237

row,Variant,self-cleavage
1,G25A C58G,0.111
2,G25A U60A,0.295
3,G25A U60C,0.138
4,G25A A83U,0.0678
5,U23G C41U,0.723
6,U23G C75G,0.111
7,U23G C75A,0
8,G25U C63G,0.203
9,G25U C63A,0.0791
10,G25U C63U,0.163
11,G25U G67C,0.277
12,C24A A51G,0.665
13,U23G U79A,0.322
14,G25C A78G,0
15,C24U G31U,0.0228
16,C24A G25C,0.208
17,C24A G25U,0.277
18,C24A A77C,0.185
19,C24U C63A,0.753
20,C24G C85G,0.125
21,C24A C66A,0.764
22,G25U C48A,0.332
23,C24U G73U,0.122
24,G25C G55U,0.089

row,Variant,self-cleavage
1,U23C U60G,0.798
2,G25C C62U,0.145
3,G25C C62G,0.0615
4,G25C G31A,0.135
5,C24U G39U,0.111
6,C24U G39A,0.257
7,C24U G39C,0.0302
8,C24G A78G,0.173
9,C24A G53U,0.858
10,G25C G34A,0.143
11,C24G G52A,0.123
12,U23G U37C,0.751
13,U23G U37G,0.217
14,G25U G54U,0.228
15,C24A A87U,0.749
16,C24A A87G,0.7
17,G25C G82U,0.0755
18,G25C G82C,0.0326
19,G25U C30A,0.158
20,G25U C30G,0.148
21,G25A G53A,0.245
22,G25A G53C,0.248
23,C24A C57U,0.727
